Source: US20030235534A1, “Methods and compositions for radioimmunotherapy of brain and CNS tumors” (priority 2002, published 2003)
*1 amine or outer side, *2 acyl side, *3 side chain or, on linkers, in order; H or OH if unused. Where a SMILES comes first, the peptide text is derived from it. Side-chain parts run from the residue outwards. [ ]: non-standard residue; d: D form. The star is where a group is joined. DOTA = O=C(O)CN1CCN(CC(=O)O)CCN(CC(=O)*)CCN(CC(=O)O)CC1; NH(2-(imidazol-4-yl)ethyl) = c1ncc(CCN*)[nH]1; Suc = O=C(CCC(=O)[*:2])[*:1]

What was measured:
[1] = test system: inoperable brain tumor in the pons; experiment: Treatment of a brain cancer patient with pretargeted bispecific antibody-mediated radioimmunotherapy using an alpha-emitting radionuclide (intravenous)
Procedure: This preparation has an In-111 label to confirm targeting to the brain tumor by gamma camera imaging 24 h later. After two more days, to allow for adequate localization of the bispecific antibody to the tumor and clearance from the body, the Ac-225-IMP 241 of example 7, above, is also injected intravenously, at a dose of 1 mCi.

glioblastoma multiforme = experiment: Treatment of a brain cancer patient with pretargeted bispecific antibody-mediated radioimmunotherapy using an alpha-emitting radionuclide (hapten into surgical cavity)
glioblastome multiforme = experiment: Treatment of a brain cancer patient with premixed bispecific antibody-mediated radioimmunotherapy using a beta-emitting radionuclide; conditions: 1:1 molar mixture with bispecific antibody of Example 1; 12 mCi Y-90, 10 mg antibody, into reservoir, 4 days post surgery
Procedure: A patient with recently-diagnosed glioblastome multiforme in their left hemisphere, which is limited to a focal lesion, undergoes a gross total resection, with placement of a Rickham reservoir and catheter into the surgically-created resection cavity. Placement of the catheter is confirmed by an MRI scan 24 h later. […] The reservoir and catheter are flushed after the antibody injection.

[2] = 1 mCi i.v. after 30 mg i.v. humanized anti-tenascin x anti-HSG bispecific antibody, 8 weeks later

Compound: NC(=O)[C@H](CCCCNC(=O)CNC(=O)CCC(=O)NCCc1cnc[nH]1)NC(=O)[C@@H](Cc1ccc(O)cc1)NC(=O)[C@H](CCCCNC(=O)CNC(=O)CCC(=O)NCCc1cnc[nH]1)NC(=O)[C@H](Cc1ccccc1)NC(=O)CN1CCN(CC(=O)O)CCN(CC(=O)O)CCN(CC(=O)O)CC1 [Ac-225-IMP 241, metal not drawn] ({DOTA}-FK([Gly-Suc-NH(2-(imidazol-4-yl)ethyl)])[dY]K([Gly-Suc-NH(2-(imidazol-4-yl)ethyl)])-NH2)
- granulocytes (ANC) and platelets [1, 2]: within the normal range
- hematological toxicity [1, 2]: no evidence of hematological toxicity
- adverse events from therapy (glioblastoma multiforme; 1 mCi into surgical cavity two days after 30 mg i.v. humanized anti-tenascin x anti-HSG bispecific antibody): does not experience any adverse events

Compound: NC(=O)[C@H](CCCCNC(=O)CNC(=O)CCC(=O)NCCc1cnc[nH]1)NC(=O)[C@@H](Cc1ccc(O)cc1)NC(=O)[C@H](CCCCNC(=O)CNC(=O)CCC(=O)NCCc1cnc[nH]1)NC(=O)[C@H](Cc1ccccc1)NC(=O)CN1CCN(CC(=O)O)CCN(CC(=O)O)CCN(CC(=O)O)CC1 (90Y complex, metal not drawn) [Y-90-IMP 241] ({DOTA}-FK([Gly-Suc-NH(2-(imidazol-4-yl)ethyl)])[dY]K([Gly-Suc-NH(2-(imidazol-4-yl)ethyl)])-NH2)
- tolerability of radioimmunotherapy procedure (glioblastome multiforme): tolerates the radioimmunotherapy procedure well

Compound: Cn1nnc2c(C(N)=O)ncn2c1=O [temozolomide, reference compound]
- additional reduction of the tumor ([1]; temozolomide therapy given three months after the 3-month follow-up of radioimmunotherapy): 25%
- tolerability of chemotherapy regimen (glioblastoma multiforme; given after radioimmunotherapy): tolerated well
